In patent US20210388087A1:
Substitutions are numbered along the chain they refer to. In names and notes the source's numbering stands.

B1: H183/L072 VH D52aW (antibody, name in Kabat numbering, V domains shown)
VH: QVQLVESGGGLVQPGRSLRLSCAASGFTFSNAWMHWVRQAPGKGLEWVAQIKWKGNAYAAYYAPSVKGRFTISRDDSKNSIYLQMNSLKTEDTAVYYCHYVHYASASTVLPAFGVDAWGQGTTVTVSS
VL: DIVMTQSPLSLPVTPGEPASISCQASQELVHMNRNTYLHWYQQKPGQAPRLLIYKVSNRFPGVPDRFSGSGSGTDFTLKISRVEAEDVGVYYCAQGTSVPFTFGQGTKLEIK
B2: H183/L072 VH I51W (antibody, name in Kabat numbering, V domains shown)
VH: B1 VH with I51W, W53D
VL: B1 VL
B3: H183/L072 VH N53W (antibody, name in Kabat numbering, V domains shown)
VH: B1 VH with W53D, N56W
VL: B1 VL
B4: H183/L072 VH K52F (antibody, name in Kabat numbering, V domains shown)
VH: B1 VH with K52F, W53D
VL: B1 VL
B5: H183/L072 VH S99P (antibody, name in Kabat numbering, V domains shown)
VH: B1 VH with W53D, S105P
VL: B1 VL
B6: H183/L072 VH A32W (antibody, name in Kabat numbering, V domains shown)
VH: B1 VH with A32W, W53D
VL: B1 VL
B7: H183/L072 VH A57W (antibody, name in Kabat numbering, V domains shown)
VH: B1 VH with W53D, A60W
VL: B1 VL
B8: H183/L072 VH W33F (antibody, name in Kabat numbering, V domains shown)
VH: B1 VH with W33F, W53D
VL: B1 VL
B9: H183/L072 VH S100aP (antibody, name in Kabat numbering, V domains shown)
VH: B1 VH with W53D, S107P
VL: B1 VL
B10: H183/L072 VH G100hP (antibody, name in Kabat numbering, V domains shown)
VH: B1 VH with W53D, G114P
VL: B1 VL
B11: H183/L072 VH D52aF (antibody, name in Kabat numbering, V domains shown)
VH: B1 VH with W53F
VL: B1 VL
B12: H183/L072 VH K52W (antibody, name in Kabat numbering, V domains shown)
VH: B1 VH with K52W, W53D
VL: B1 VL
B13: H183/L072 VH A102P (antibody, name in Kabat numbering, V domains shown)
VH: B1 VH with W53D, A117P
VL: B1 VL
B14: H183/L072 VH N53F (antibody, name in Kabat numbering, V domains shown)
VH: B1 VH with W53D, N56F
VL: B1 VL
B15: H183/L072 VH M34W (antibody, name in Kabat numbering, V domains shown)
VH: B1 VH with M34W, W53D
VL: B1 VL
B16: H183/L072 VH H35W (antibody, name in Kabat numbering, V domains shown)
VH: B1 VH with H35W, W53D
VL: B1 VL
B17: H183/L072 VH V100cP (antibody, name in Kabat numbering, V domains shown)
VH: B1 VH with W53D, V109P
VL: B1 VL
B18: H183/L072 VH L100dP (antibody, name in Kabat numbering, V domains shown)
VH: B1 VH with W53D, L110P
VL: B1 VL
B19: H183/L072 VH D101P (antibody, name in Kabat numbering, V domains shown)
VH: B1 VH with W53D, D116P
VL: B1 VL
B20: H183/L072 VH T100bP (antibody, name in Kabat numbering, V domains shown)
VH: B1 VH with W53D, T108P
VL: B1 VL
B21: H183/L072 VH A56F (antibody, name in Kabat numbering, V domains shown)
VH: B1 VH with W53D, A59F
VL: B1 VL
B22: H183/L072 VH V100iP (antibody, name in Kabat numbering, V domains shown)
VH: B1 VH with W53D, V115P
VL: B1 VL
B23: H183/L072 VH I51F (antibody, name in Kabat numbering, V domains shown)
VH: B1 VH with I51F, W53D
VL: B1 VL
B24: H183/L072 VH F100gP (antibody, name in Kabat numbering, V domains shown)
VH: B1 VH with W53D, F113P
VL: B1 VL
B25: H183/L072 VH Y55W (antibody, name in Kabat numbering, V domains shown)
VH: B1 VH with W53D, Y58W
VL: B1 VL
B26: H183/L072 VL H27dA (antibody, name in Kabat numbering, V domains shown)
VH: B1 VH with W53D
VL: B1 VL with H31A
B27: H183/L072 VL Q24P (antibody, name in Kabat numbering, V domains shown)
VH: B1 VH with W53D
VL: B1 VL with Q24P
B28: H183/L072 VL Q27P (antibody, name in Kabat numbering, V domains shown)
VH: B1 VH with W53D
VL: B1 VL with Q27P
B29: H183/L072 VL Y32I (antibody, name in Kabat numbering, V domains shown)
VH: B1 VH with W53D
VL: B1 VL with Y37I
B30: H183/L072 VL N30P (antibody, name in Kabat numbering, V domains shown)
VH: B1 VH with W53D
VL: B1 VL with N35P
B31: H183/L072 VL H34M (antibody, name in Kabat numbering, V domains shown)
VH: B1 VH with W53D
VL: B1 VL with H39M
B32: H183/L072 VL L33I (antibody, name in Kabat numbering, V domains shown)
VH: B1 VH with W53D
VL: B1 VL with L38I
B33: H183/L072 VL N28I (antibody, name in Kabat numbering, V domains shown)
VH: B1 VH with W53D
VL: B1 VL with N33I
B34: H183/L072 VL T31P (antibody, name in Kabat numbering, V domains shown)
VH: B1 VH with W53D
VL: B1 VL with T36P
B35: H183/L072 VL A25L (antibody, name in Kabat numbering, V domains shown)
VH: B1 VH with W53D
VL: B1 VL with A25L
B36: H183/L072 VL H27dM (antibody, name in Kabat numbering, V domains shown)
VH: B1 VH with W53D
VL: B1 VL with H31M
B37: H183/L072 VL H27dP (antibody, name in Kabat numbering, V domains shown)
VH: B1 VH with W53D
VL: B1 VL with H31P
B38: H183/L072 VL T31M (antibody, name in Kabat numbering, V domains shown)
VH: B1 VH with W53D
VL: B1 VL with T36M
B39: H183/L072 VL Y32M (antibody, name in Kabat numbering, V domains shown)
VH: B1 VH with W53D
VL: B1 VL with Y37M
B40: H183/L072 VL H27dI (antibody, name in Kabat numbering, V domains shown)
VH: B1 VH with W53D
VL: B1 VL with H31I
B41: H183/L072 VL V27cP (antibody, name in Kabat numbering, V domains shown)
VH: B1 VH with W53D
VL: B1 VL with V30P
B42: H183/L072 VL N28P (antibody, name in Kabat numbering, V domains shown)
VH: B1 VH with W53D
VL: B1 VL with N33P
B43: H183/L072 VL H27dL (antibody, name in Kabat numbering, V domains shown)
VH: B1 VH with W53D
VL: B1 VL with H31L
B44: H183/L072 VL N28M (antibody, name in Kabat numbering, V domains shown)
VH: B1 VH with W53D
VL: B1 VL with N33M
B45: H183/L072 VL H34I (antibody, name in Kabat numbering, V domains shown)
VH: B1 VH with W53D
VL: B1 VL with H39I
B46: H183/L072 VL R29P (antibody, name in Kabat numbering, V domains shown)
VH: B1 VH with W53D
VL: B1 VL with R34P
B47: H183/L072 VL N28L (antibody, name in Kabat numbering, V domains shown)
VH: B1 VH with W53D
VL: B1 VL with N33L

molecular target: Human CD137 ECD (human); assay: single mutant vs template dBBDu183H
Sequence (chain, as listed by the source limits assumed): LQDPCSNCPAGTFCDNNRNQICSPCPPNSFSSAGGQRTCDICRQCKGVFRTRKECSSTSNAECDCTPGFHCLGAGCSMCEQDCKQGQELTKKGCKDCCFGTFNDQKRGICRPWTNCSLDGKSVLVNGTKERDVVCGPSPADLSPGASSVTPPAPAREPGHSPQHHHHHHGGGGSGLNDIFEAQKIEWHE

Binder	fold change of affinity
B1	0 fold
B2	0 fold
B3	0 fold
B4	0 fold
B5	0 fold
B6	0 fold
B7	0 fold
B8	0 fold
B9	0 fold
B10	0 fold
B11	0 fold
B12	0 fold
B13	0 fold
B14	0 fold
B15	0 fold
B16	0 fold
B17	0 fold
B18	0 fold
B19	0 fold
B20	0 fold
B21	0 fold
B22	0 fold
B23	0 fold
B24	0 fold
B25	0 fold

molecular target: Human CD3eg linker (human); assay: SPR; fold vs parent H183/L072
Sequence (chain, as listed by the source limits assumed): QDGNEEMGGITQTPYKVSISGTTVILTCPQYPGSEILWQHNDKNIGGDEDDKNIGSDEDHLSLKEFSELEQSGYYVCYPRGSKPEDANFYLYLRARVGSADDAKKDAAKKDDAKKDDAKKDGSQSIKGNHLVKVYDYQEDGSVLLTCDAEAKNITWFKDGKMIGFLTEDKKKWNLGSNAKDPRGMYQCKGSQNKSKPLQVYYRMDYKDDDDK

Binder	fold change of affinity
B26	0 fold
B27	0 fold
B28	0 fold
B29	0 fold
B30	0 fold
B31	0 fold
B32	0 fold
B33	0 fold
B34	0 fold
B35	0 fold
B36	0 fold
B37	0 fold
B38	0 fold
B39	0 fold
B40	0 fold
B41	0 fold
B42	0 fold
B43	0 fold
B44	0 fold
B45	0 fold
B46	0 fold
B47	0 fold
